The results in this text go back to patent US20140087995A1 (published 2014).

B1: N^ε1-[2-[2-[2-[[(4S)-4-carboxy-4-(19-carboxynonadecanoylamino)butanoyl]amino]ethoxy]ethoxy]acetyl]-[His14,Arg17,Pro21,Pro27]-h-amylin (peptide)
peptide: K([AEEA-γGlu-C20 diacid])CNTATCATQRLAHFLRHSSPNFGAIPSSTNVGSNTY-NH2
modifications: disulfide 2-7; N-terminus assumed
SMILES: CC[C@H](C)[C@H](NC(=O)[C@H](C)NC(=O)CNC(=O)[C@H](Cc1ccccc1)NC(=O)[C@H](CC(N)=O)NC(=O)[C@@H]1CCCN1C(=O)[C@H](CO)NC(=O)[C@H](CO)NC(=O)[C@H](Cc1c[nH]cn1)NC(=O)[C@H](CCCNC(=N)N)NC(=O)[C@H](CC(C)C)NC(=O)[C@H](Cc1ccccc1)NC(=O)[C@H](Cc1c[nH]cn1)NC(=O)[C@H](C)NC(=O)[C@H](CC(C)C)NC(=O)[C@H](CCCNC(=N)N)NC(=O)[C@H](CCC(N)=O)NC(=O)[C@@H](NC(=O)[C@H](C)NC(=O)[C@@H]1CSSC[C@H](NC(=O)[C@@H](N)CCCCNC(=O)COCCOCCNC(=O)CC[C@H](NC(=O)CCCCCCCCCCCCCCCCCCC(=O)O)C(=O)O)C(=O)N[C@@H](CC(N)=O)C(=O)N[C@@H]([C@@H](C)O)C(=O)N[C@@H](C)C(=O)N[C@@H]([C@@H](C)O)C(=O)N1)[C@@H](C)O)C(=O)N1CCC[C@H]1C(=O)N[C@@H](CO)C(=O)N[C@@H](CO)C(=O)N[C@H](C(=O)N[C@@H](CC(N)=O)C(=O)N[C@H](C(=O)NCC(=O)N[C@@H](CO)C(=O)N[C@@H](CC(N)=O)C(=O)N[C@H](C(=O)N[C@@H](Cc1ccc(O)cc1)C(N)=O)[C@@H](C)O)C(C)C)[C@@H](C)O
notes: Analogue of human amylin; also called compound 69
B2: N^ε1-[2-[2-[2-[[(4S)-4-carboxy-4-(19-carboxynonadecanoylamino)butanoyl]amino]ethoxy]ethoxy]acetyl]-[Ala14,Arg17,Pro21,Pro27,Pro31]-h-amylin (peptide)
peptide: K([AEEA-γGlu-C20 diacid])CNTATCATQRLAAFLRHSSPNFGAIPSSTPVGSNTY-NH2
modifications: disulfide 2-7; N-terminus assumed
SMILES: CC[C@H](C)[C@H](NC(=O)[C@H](C)NC(=O)CNC(=O)[C@H](Cc1ccccc1)NC(=O)[C@H](CC(N)=O)NC(=O)[C@@H]1CCCN1C(=O)[C@H](CO)NC(=O)[C@H](CO)NC(=O)[C@H](Cc1c[nH]cn1)NC(=O)[C@H](CCCNC(=N)N)NC(=O)[C@H](CC(C)C)NC(=O)[C@H](Cc1ccccc1)NC(=O)[C@H](C)NC(=O)[C@H](C)NC(=O)[C@H](CC(C)C)NC(=O)[C@H](CCCNC(=N)N)NC(=O)[C@H](CCC(N)=O)NC(=O)[C@@H](NC(=O)[C@H](C)NC(=O)[C@@H]1CSSC[C@H](NC(=O)[C@@H](N)CCCCNC(=O)COCCOCCNC(=O)CC[C@H](NC(=O)CCCCCCCCCCCCCCCCCCC(=O)O)C(=O)O)C(=O)N[C@@H](CC(N)=O)C(=O)N[C@@H]([C@@H](C)O)C(=O)N[C@@H](C)C(=O)N[C@@H]([C@@H](C)O)C(=O)N1)[C@@H](C)O)C(=O)N1CCC[C@H]1C(=O)N[C@@H](CO)C(=O)N[C@@H](CO)C(=O)N[C@H](C(=O)N1CCC[C@H]1C(=O)N[C@H](C(=O)NCC(=O)N[C@@H](CO)C(=O)N[C@@H](CC(N)=O)C(=O)N[C@H](C(=O)N[C@@H](Cc1ccc(O)cc1)C(N)=O)[C@@H](C)O)C(C)C)[C@@H](C)O
notes: Analogue of human amylin; also called compound 72
B3: N^ε1-[2-[2-[2-(19-carboxynonadecanoylamino)ethoxy]ethoxy]acetyl]-[Arg17,Pro21,Pro27,His34]-h-amylin (peptide)
peptide: K([AEEA-C20 diacid])CNTATCATQRLANFLRHSSPNFGAIPSSTNVGHNTY-NH2
modifications: disulfide 2-7; N-terminus assumed
SMILES: CC[C@H](C)[C@H](NC(=O)[C@H](C)NC(=O)CNC(=O)[C@H](Cc1ccccc1)NC(=O)[C@H](CC(N)=O)NC(=O)[C@@H]1CCCN1C(=O)[C@H](CO)NC(=O)[C@H](CO)NC(=O)[C@H](Cc1c[nH]cn1)NC(=O)[C@H](CCCNC(=N)N)NC(=O)[C@H](CC(C)C)NC(=O)[C@H](Cc1ccccc1)NC(=O)[C@H](CC(N)=O)NC(=O)[C@H](C)NC(=O)[C@H](CC(C)C)NC(=O)[C@H](CCCNC(=N)N)NC(=O)[C@H](CCC(N)=O)NC(=O)[C@@H](NC(=O)[C@H](C)NC(=O)[C@@H]1CSSC[C@H](NC(=O)[C@@H](N)CCCCNC(=O)COCCOCCNC(=O)CCCCCCCCCCCCCCCCCCC(=O)O)C(=O)N[C@@H](CC(N)=O)C(=O)N[C@@H]([C@@H](C)O)C(=O)N[C@@H](C)C(=O)N[C@@H]([C@@H](C)O)C(=O)N1)[C@@H](C)O)C(=O)N1CCC[C@H]1C(=O)N[C@@H](CO)C(=O)N[C@@H](CO)C(=O)N[C@H](C(=O)N[C@@H](CC(N)=O)C(=O)N[C@H](C(=O)NCC(=O)N[C@@H](Cc1c[nH]cn1)C(=O)N[C@@H](CC(N)=O)C(=O)N[C@H](C(=O)N[C@@H](Cc1ccc(O)cc1)C(N)=O)[C@@H](C)O)C(C)C)[C@@H](C)O
notes: Analogue of human amylin; also called compound 91

Numbered stars: 1 amine (or outer) side, 2 acyl side, 3 side chain; on linkers, the order of the positions; unused ones are H or OH. Bridge positions count the residues as written; N and C are the ends. Side chains are listed from the residue outwards. Ends that are not written are not given here. * marks the point of attachment. C20 diacid = O=C(O)CCCCCCCCCCCCCCCCCCC(=O)*; γGlu = O=C(O)[C@H](CCC(=O)[*:2])N[*:1]; AEEA = NCCOCCOCC(=O)O

One experiment concerns the target T1, human calcitonin receptor (human, UniProt P30988 25-474).
T1 construct: whole, on cells; Membranes prepared from a stably transfected BHK cell line (Assay VII); also called hCTR; hCT
T1 sequence (looked up): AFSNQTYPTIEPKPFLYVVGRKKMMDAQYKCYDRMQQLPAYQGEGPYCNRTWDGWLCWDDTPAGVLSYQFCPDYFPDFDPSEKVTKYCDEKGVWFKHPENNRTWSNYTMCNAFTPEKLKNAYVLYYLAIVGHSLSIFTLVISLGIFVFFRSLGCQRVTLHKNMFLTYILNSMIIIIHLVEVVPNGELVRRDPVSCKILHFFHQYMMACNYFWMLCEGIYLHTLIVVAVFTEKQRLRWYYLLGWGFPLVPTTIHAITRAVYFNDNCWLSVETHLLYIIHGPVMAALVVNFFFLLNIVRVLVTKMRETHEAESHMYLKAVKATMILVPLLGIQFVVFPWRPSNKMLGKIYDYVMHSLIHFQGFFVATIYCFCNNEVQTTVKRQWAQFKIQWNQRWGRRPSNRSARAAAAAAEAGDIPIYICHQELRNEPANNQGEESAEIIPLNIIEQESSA
Put plainly: ratio of binding IC50s: human calcitonin receptor / human amylin receptor (reference). As to the method:
The resulting pellet was resuspended, homogenized and centrifuged (20.000 rpm, 15 min) in a buffer containing 20 mM Na-HEPES and 0.1 mM EDTA (pH 7.4, buffer 2). The resulting pellet was resuspended in buffer 2 and protein concentration was measured (BCA protein Assay, Pierce). The homogenate was kept cold during the whole procedure. The membranes were kept at −80° C. until use. The assay was performed in a 384 well Optiplate (PerkinElmer) in a total volume of 40 ul. Membranes were mixed with SPA beads. Final concentration of membranes 35 ng/μL final and SPA beads was 0.05 mg/well. Test-compounds were dissolved in DMSO and further diluted in assay buffer (50 mM Hepes, pH 7.4, 1 mM CaCl2, 5 mM MgCl₂, 0.1% OA and 0.02% Tween20). […] The final mixture was incubated with shaking at 400 rpm for 120 min at 25° C. prior to centrifugation (1500 rpm, 10 min). Samples were analyzed on TopCounter™ (Packard). The IC₅₀ was calculated using (one site binding competition analysis) GraphPad Prism5 as a measure of receptor affinity.
Membranes were prepared in the following way; the cells were rinsed with PBS and incubated with Versene for approximately 5 min before harvesting. The cells were flushed with PBS and the cell-suspension was centrifuged for 5 min at 1000 rpm. Cells were homogenized (Ultrathurrax) in a buffer containing 20 mM Na-HEPES and 10 mM EDTA (pH 7.4) and centrifuged at 20.000 rpm for 15 min. The resulting pellet was resuspended, homogenized and centrifuged (20.000 rpm, 15 min) in a buffer containing 20 mM Na-HEPES and 0.1 mM EDTA (pH 7.4, buffer 2). The resulting pellet was resuspended in buffer 2 and protein concentration was measured (BCA protein Assay, Pierce). The homogenate was kept cold during the whole procedure. The membranes were kept at −80° C. until use. Assay was performed in a 384 well Optiplate (PerkinElmer) in a total volume of 40 ul. Membranes were mixed with SPA beads.
As for B1, the “Ratio hCT/hAmylin binding” value stood at 65.3.

Consider B2, for which the “Ratio hCT/hAmylin binding” value was 247.

For B3, the “Ratio hCT/hAmylin binding” value was 101.

A further experiment deals with T2, rat calcitonin receptor (rat, UniProt P32214 25-516).
T2 construct: whole, on cells; Membranes prepared from transiently transfected BHK tk'ts 13 cells (Assay VIII); also called rCTR; rCT
T2 sequence (looked up): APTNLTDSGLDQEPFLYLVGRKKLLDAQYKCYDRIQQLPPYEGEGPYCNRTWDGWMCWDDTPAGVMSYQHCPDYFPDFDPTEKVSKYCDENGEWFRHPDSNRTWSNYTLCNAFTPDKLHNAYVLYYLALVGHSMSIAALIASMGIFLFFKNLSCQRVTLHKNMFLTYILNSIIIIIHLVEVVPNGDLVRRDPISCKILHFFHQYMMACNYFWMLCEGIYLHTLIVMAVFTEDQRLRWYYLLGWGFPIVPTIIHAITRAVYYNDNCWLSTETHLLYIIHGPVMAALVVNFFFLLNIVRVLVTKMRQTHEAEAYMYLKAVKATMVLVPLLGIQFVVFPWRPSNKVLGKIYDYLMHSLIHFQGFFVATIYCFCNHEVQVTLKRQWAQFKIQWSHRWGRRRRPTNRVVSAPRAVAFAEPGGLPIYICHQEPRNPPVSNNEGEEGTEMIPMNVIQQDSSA
Put plainly: SPA competition vs 125I-calcitonin, membranes of BHK cells with rat calcitonin receptor (Assay VIII).
As for B1, the IC50 was 46.8 nM.

On to B2, for which the half-maximal inhibitory concentration (IC50) turned out to be 221 nM.

On to B3, for which the IC50 came out at 29.4 nM.

Another experiment deals with T3, rat amylin receptor (rat calcitonin receptor + rat RAMP 3) (rat, UniProt P32214 25-516; Q9JJ73 23-147).
T3 construct: whole, on cells; Membranes prepared from transiently transfected BHK tk'ts 13 cells (Assay VI); also called rAmylin-R; rAmylin
T3 sequence (looked up) 1: T2 sequence (looked up)
T3 sequence (looked up) 2: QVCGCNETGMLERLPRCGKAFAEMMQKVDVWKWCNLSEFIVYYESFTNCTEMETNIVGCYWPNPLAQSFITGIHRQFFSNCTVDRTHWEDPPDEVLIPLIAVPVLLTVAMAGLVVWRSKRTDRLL
Put plainly: SPA competition vs 125I-rat amylin, membranes of BHK cells with rat calcitonin receptor + rat RAMP3 (Assay VI). As to the method:
The binding assay was performed using scintillation proximity assay (SPA) beads (RPNQ0001) from PerkinElmer and cell membranes from the Amylin 3(a)/CRE-luc cells (as described in Assay (II)) were used. Membranes were prepared in the following way; the cells were rinsed with PBS and incubated with Versene for approximately 5 min before harvesting. The cells were flushed with PBS and the cell-suspension was centrifuged for 5 min at 1000 rpm. Cells were homogenized (ultrathurrax) in a buffer containing 20 mM Na-HEPES and 10 mM EDTA (pH 7.4) and centrifuged at 20.000 rpm for 15 min. The resulting pellet was resuspended, homogenized and centrifuged (20.000 rpm, 15 min) in a buffer containing 20 mM Na-HEPES and 0.1 mM EDTA (pH 7.4, buffer 2). The resulting pellet was resuspended in buffer 2 and protein concentration was measured (BCA protein Assay, Pierce). The homogenate was kept cold during the whole procedure. The membranes were kept at −80° C. until use. The assay was performed in a 384 well Optiplate (PerkinElmer) in a total volume of 40 ul. Membranes were mixed with SPA beads. Final concentration of membranes 35 ng/μL final and SPA beads was 0.05 mg/well. Test-compounds were dissolved in DMSO and further diluted in assay buffer (50 mM Hepes, pH 7.4, 1 mM CaCl2, 5 mM MgCl₂, 0.1% OA and 0.02% Tween20). […] The final mixture was incubated with shaking at 400 rpm for 120 min at 25° C. prior to centrifugation (1500 rpm, 10 min). Samples were analyzed on TopCounter™ (Packard). The IC₅₀ was calculated using (one site binding competition analysis) GraphPad Prism5 as a measure of receptor affinity.
Cells were grown in DMEM with 10% FBS and 1% Pen/Strep. Approximately 48 hours after transfection, the cells were harvested and membranes were prepared.
As to B1, the IC50 is 0.45 nM.

As for B2, the 50% inhibitory concentration (IC50) was 0.851 nM.

In the case of B3, the IC50 turned out to be 0.386 nM.

In another experiment the target is T2, rat calcitonin receptor. Put plainly: ratio of binding IC50s: rat calcitonin receptor / rat amylin receptor (reference).
Consider B1, for which the “Ratio rCT/rAmylin binding” value worked out at 104.

As to B2, the “Ratio rCT/rAmylin binding” value came to 259.

For the molecule B3, the “Ratio rCT/rAmylin binding” value stood at 76.3.

As usually defined, the IC50 is the concentration needed to halve the response being measured.
